# Laboratory results from publication doi:10.1101/2025.10.06.680677, “Mechanistic insight into the oligomerisation of Arabidopsis CRY1 and its inhibition by BIC1” (bioRxiv, 2025).
# B1: Arabidopsis thaliana CRY1 PHR domain (residues 1-509) (domain or fragment, UniProt Q43125 1-509, looked up)
# chain: MSGSVSGCGSGGCSIVWFRRDLRVEDNPALAAAVRAGPVIALFVWAPEEEGHYHPGRVSRWWLKNSLAQLDSSLRSLGTCLITKRSTDSVASLLDVVKSTGASQIFFNHLYDPLSLVRDHRAKDVLTAQGIAVRSFNADLLYEPWEVTDELGRPFSMFAAFWERCLSMPYDPESPLLPPKKIISGDVSKCVADPLVFEDDSEKGSNALLARAWSPGWSNGDKALTTFINGPLLEYSKNRRKADSATTSFLSPHLHFGEVSVRKVFHLVRIKQVAWANEGNEAGEESVNLFLKSIGLREYSRYISFNHPYSHERPLLGHLKFFPWAVDENYFKAWRQGRTGYPLVDAGMRELWATGWLHDRIRVVVSSFFVKVLQLPWRWGMKYFWDTLLDADLESDALGWQYITGTLPDSREFDRIDNPQFEGYKFDPNGEYVRRWLPELSRLPTDWIHHPWNAPESVLQAAGIELGSNYPLPIVGLDEAKARLHEALSQMWQLEAASRAAIENGSEEG
# notes: Cryptochrome 1 (CRY1), Arabidopsis thaliana, photolyase homology region (PHR) domain, residues 1-509; Cloned in pACYCDuet-1; Monomer about 59 kDa by LILBID-MS; also called wild-type CRY1; source: E. coli BL21 Star (DE3), purified (Ni-NTA, SEC on Superdex 200)
# B2: Arabidopsis thaliana CRY1 PHR domain (residues 1-509) L407F mutant (domain or fragment, UniProt Q43125 1-509, looked up)
# chain: MSGSVSGCGSGGCSIVWFRRDLRVEDNPALAAAVRAGPVIALFVWAPEEEGHYHPGRVSRWWLKNSLAQLDSSLRSLGTCLITKRSTDSVASLLDVVKSTGASQIFFNHLYDPLSLVRDHRAKDVLTAQGIAVRSFNADLLYEPWEVTDELGRPFSMFAAFWERCLSMPYDPESPLLPPKKIISGDVSKCVADPLVFEDDSEKGSNALLARAWSPGWSNGDKALTTFINGPLLEYSKNRRKADSATTSFLSPHLHFGEVSVRKVFHLVRIKQVAWANEGNEAGEESVNLFLKSIGLREYSRYISFNHPYSHERPLLGHLKFFPWAVDENYFKAWRQGRTGYPLVDAGMRELWATGWLHDRIRVVVSSFFVKVLQLPWRWGMKYFWDTLLDADLESDALGWQYITGTFPDSREFDRIDNPQFEGYKFDPNGEYVRRWLPELSRLPTDWIHHPWNAPESVLQAAGIELGSNYPLPIVGLDEAKARLHEALSQMWQLEAASRAAIENGSEEG
# notes: Cryptochrome 1 (CRY1), Arabidopsis thaliana, PHR domain, residues 1-509, with L407F; Cloned in pACYCDuet-1; also called CRY1^L407F; constitutively active CRY1; source: E. coli BL21 Star (DE3), purified (Ni-NTA, SEC on Superdex 200)
# How the values were obtained:
# [1] = molecular target: B1; test: native MS; quantitative LILBID-MS (qLILBID-MS), label-free, in the dark; KD from dissociation plots; settings: both partners purified
# [2] = molecular target: B2; test: as above; settings: both partners purified
# [3] = molecular target: B1; test: native MS; quantitative LILBID-MS (qLILBID-MS), label-free, under blue light; KD from dissociation plots; settings: both partners purified
# [4] = molecular target: the molecule itself; test: not stated; wild-type BIC1, disulfide bond-mediated dimerization (Extended Data Fig. 5a, b); method not given
# [5] = molecular target: the molecule itself; test: native MS; time-resolved nESI-MS, CRY1 15 µM, blue light, room temperature, with 100 µM ATP; reversible two-step model (monomer to dimer, dimer to tetramer)
# [6] = molecular target: the molecule itself; test: native MS; time-resolved nESI-MS, 10 scans per second, CRY1 15 µM, blue light, room temperature, no ATP; reversible two-step model (monomer to dimer, dimer to tetramer) fitted with DynaFit
# [7] = molecular target: the molecule itself; test: native MS; LILBID-MS, under blue light (455 nm LED, 100 µmol m-2 s-1), 20 °C, 200 mM ammonium acetate, 10 mM DTT, pH 7.4; BIC1 equimolar, added before illumination or to pre-illuminated tetrameric CRY1
# [8] = molecular target: the molecule itself; test: SEC; analytical SEC, Superdex 200 10/300 GL, 10 °C, 30 µM protein, ß-mercaptoethanol, kept in darkness (red safe light)
binder,measurement,setting,value
"Blue-light Inhibitor of Cryptochromes 1 (BIC1) triple mutant C99A, C105A, C136A (natural protein, Arabidopsis thaliana, UniProt Q9LXJ1 1-140, looked up, BIC1, Arabidopsis thaliana, synthetic gene with three cysteine-to-alanine substitutions; Cloned in pET28a(+) (BioCat GmbH); About 20 kDa by LILBID-MS; also called BIC1^3CA; source: E. coli BL21 Star (DE3), purified (Ni-NTA, SEC on Superdex 75)) MMNIDDTTSPMAHPIGPSQPPSDQTKQDPPSLPQEAASSVSADKKDLALLEEKPKQSQEEDRVDTGRERLKKHRREIAGRVWIPEIWGQEELLKDWIDASTFDTALVPAGISSARTALVEEARRAASASGGLHNRALILR",Kd,[1],~1200 nM
same,Kd,[2],100 ± 30 nM
same,Kd,[3],130 ± 90 nM
"Arabidopsis thaliana wild-type BIC1 protein (natural protein, UniProt Q9LXJ1 1-140, looked up, BIC1, Arabidopsis thaliana, wild type with its cysteines; The construct and its host are not described; the methods say in general that recombinant proteins carried an N-terminal His6-tag; The dimer is held by disulfide bonds) MMNIDDTTSPMAHPIGPSQPPSDQTKQDPPSLPQEAASSVSADKKDLALLEEKPKQSQEEDRVDTGRERLKKHRREIAGRVWIPEIWGQEELLKDWIDCSTFDTCLVPAGISSARTALVEEARRAASASGGLHNRCLILR",stoichiometry N,[4],2
B1,fold change of the rate of tetramer formation with 100 µM ATP against no ATP,[5],~4 fold
same,fold slowing of dimer dissociation with 100 µM ATP against no ATP,[5],> 10 fold
same,fold slowing of tetramer dissociation with 100 µM ATP against no ATP,[5],~2 fold
same,half-life of tetramer formation (single-exponential fit),[6],~18 s
same,stoichiometry N,[7],4
B2,stoichiometry N,[8],4
